Assay results from patent publication US20240076680 (RHEINISCHE FRIEDRICH-WILHELMS-UNIVERSITÄt BONN, published 2024).

Legend:
[1] = biological target: SARS-CoV-2 spike receptor-binding domain (RBD) (SARS-CoV-2, UniProt P0DTC2 P0DTC2:319-591); test: flow
ACE2 ectodomain (ACE2e) = ACE2 ectodomain (ACE2e) (Homo sapiens, UniProt Q9BYF1 Q9BYF1:19-615); test: flow; conditions: tags: N-terminal myc, C-terminal HRV 3C site and 8xHis; FreeStyle 293F expressed
ACE2 ectodomain (ACE2e), sequence (Q9BYF1 19-615, one chain of several): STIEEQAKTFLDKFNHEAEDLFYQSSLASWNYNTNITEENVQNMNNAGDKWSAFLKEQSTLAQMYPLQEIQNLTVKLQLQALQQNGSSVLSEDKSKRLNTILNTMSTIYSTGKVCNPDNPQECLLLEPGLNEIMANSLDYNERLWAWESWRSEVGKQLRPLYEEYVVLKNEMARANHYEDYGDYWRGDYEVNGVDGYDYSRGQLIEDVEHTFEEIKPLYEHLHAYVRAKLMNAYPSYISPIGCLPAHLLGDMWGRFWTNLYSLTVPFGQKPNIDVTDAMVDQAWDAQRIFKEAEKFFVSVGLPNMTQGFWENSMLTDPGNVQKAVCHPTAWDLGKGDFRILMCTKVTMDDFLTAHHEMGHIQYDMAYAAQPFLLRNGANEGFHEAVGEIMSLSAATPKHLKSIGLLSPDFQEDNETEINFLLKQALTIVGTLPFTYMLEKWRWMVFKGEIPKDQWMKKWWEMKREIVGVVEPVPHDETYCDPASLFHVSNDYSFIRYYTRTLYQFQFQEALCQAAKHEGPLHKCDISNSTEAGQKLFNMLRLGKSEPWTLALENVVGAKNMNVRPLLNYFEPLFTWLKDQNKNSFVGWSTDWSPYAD

B1: SP5 (ssDNA)
DNA: GGGAGAGGAGGGAGATAGATATCAACCATGGTAGGTATTGCTTGGTAGGGATAGTGGGCTTGATGTTTCGTGGATGCCACAGGAC
Does B1 bind [1]?
Result: no binding

Does B1 bind (ACE2 ectodomain (ACE2e))?
Result: no binding

B2: SP6 (ssDNA)
DNA: GGGAGAGGAGGGAGATAGATATCAACCCATGGTAGGTATTGCTTGGTAGGGATAGTGGGCTTGATGTTTCGTGGATGCCACAGGAC
Does B2 bind [1]?
Result: no binding

Does B2 bind (ACE2 ectodomain (ACE2e))?
Result: no binding

B3: SP8 (ssDNA)
DNA: GGGAGAGGAGGGAGATAGATATCAAAAGGAGGGTAGGTAGTGCTTGGTAGGGAAACTCCGCCGATTTTTCGTGGATGCCACAGGAC
Does B3 bind [1]?
Result: no binding

Does B3 bind (ACE2 ectodomain (ACE2e))?
Result: no binding

B4: SP7 (ssDNA)
DNA: GGGAGAGGAGGGAGATAGATATCAAAGGAGGGTAGGTAGTGCTTGGTAGGGAAACTCCGCCGATTTTTCGTGGATGCCACAGGAC
Which results are given for B4?
binding result [1]: no binding; binding result (ACE2 ectodomain (ACE2e)): no binding
